Measurements: patent US20130273056A1 (NATIONAL UNIVERSITY OF SINGAPORE, published 2013)

Target: T1, Estrogen receptor alpha (ERα) (UniProt P03372 1-595, limits assumed)
T1 sequence (looked up): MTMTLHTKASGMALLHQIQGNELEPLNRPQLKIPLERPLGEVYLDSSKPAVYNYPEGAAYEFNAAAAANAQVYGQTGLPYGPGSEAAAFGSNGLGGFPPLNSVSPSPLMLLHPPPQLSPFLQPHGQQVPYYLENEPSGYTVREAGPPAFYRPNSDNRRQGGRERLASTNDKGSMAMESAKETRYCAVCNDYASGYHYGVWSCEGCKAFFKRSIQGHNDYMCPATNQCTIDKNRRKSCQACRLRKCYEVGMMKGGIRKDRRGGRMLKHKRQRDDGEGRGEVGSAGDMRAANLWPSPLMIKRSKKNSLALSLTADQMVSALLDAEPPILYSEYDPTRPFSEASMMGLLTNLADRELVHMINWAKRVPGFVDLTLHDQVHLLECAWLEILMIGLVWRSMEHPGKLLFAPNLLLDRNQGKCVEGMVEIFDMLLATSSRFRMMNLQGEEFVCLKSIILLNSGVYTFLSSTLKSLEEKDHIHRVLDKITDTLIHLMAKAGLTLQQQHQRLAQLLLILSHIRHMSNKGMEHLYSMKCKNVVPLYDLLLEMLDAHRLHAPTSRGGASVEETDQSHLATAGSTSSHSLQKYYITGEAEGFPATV
Assay: cell-based or functional assay

B1: WBP2 Y192-231F phospho-defective double mutant, V5-tagged (other, not shown: small tags and cut ends)
chain: MALNKNHSEGGGVIVNNTESILMSYDHVELTFNDMKNVPEAFKGTKKGTVYLTPYRVIFLSKGKDAMQSFMMPFYLMKDCEIKQPVFGANYIKGTVKAEAGGGWEGSASYKLTFTAGGAIEFGQRMLQVASQASRGEVPSGAYGYSYMPSGAYVYPPPVANGMYPCPPGYPYPPPPPEFYPGPPMMDGAMGFVQPPPPPYPGPMEPPVSGPDVPSTPAAEAKAAEAAASAFYNPGNPHNVYMPTSQPPPPPYYPPEDKKTQ
B1 was tested, and the “ERα reporter activity (ERE-luciferase), loss of coactivator activity relative to vector and compared to WBP2” value was roughly 60%.
